Test results published in US20220324969A1 (MYTHIC THERAPEUTICS, published 2022).
Positions count from the first letter of the chain named. Names may count otherwise.

B1: MYT0482 (antibody, V domains shown)
VH: EVQLVQSGAEVKKPGSSVKVSCKASHYTITDSNIHWVRQAPGQSLEWIGYIYPYNGGTDYNQKFKNRATLTVDNPTNTAYMELSSLRSEDTDFYYCVNGNPWLAYWGQGTLVTVSS
VL: DIQLTQSPSTLSASVGDRVTITCRASESLDNYGIRFLTWFQQKPGKAPKLLMYAASNQGSGVPSRFSGSGSGTEFTLTISSLQPDDFATYYCQQTKEVPWSFGQGTKVEVK
notes: IgG; gemtuzumab VH variant #1 (G26H)
B2: MYT0483 (antibody, V domains shown)
VH: B1 VH with H26G, Y27H
VL: B1 VL
notes: IgG; gemtuzumab VH variant #2 (Y27H)
B3: MYT0484 (antibody, V domains shown)
VH: B1 VH with H26G, T28H
VL: B1 VL
notes: IgG; gemtuzumab VH variant #3 (T28H)
B4: MYT0502 (antibody, V domains shown)
VH: B1 VH with H26G, Y60H
VL: B1 VL
notes: IgG; gemtuzumab VH variant #21 (Y60H)
B5: MYT0486 (antibody, V domains shown)
VH: B1 VH with H26G, T30H
VL: B1 VL
notes: IgG; gemtuzumab VH variant #5 (T30H)
B6: MYT0510 (antibody, V domains shown)
VH: B1 VH with H26G, N98H
VL: B1 VL
notes: IgG; gemtuzumab VH variant #29 (N98H)
B7: MYT0490 (antibody, V domains shown)
VH: B1 VH with H26G, I34H
VL: B1 VL
notes: IgG; gemtuzumab VH variant #9 (I34H)
B8: MYT0488 (antibody, V domains shown)
VH: B1 VH with H26G, S32H
VL: B1 VL
notes: IgG; gemtuzumab VH variant #7 (S32H)
B9: MYT0501 (antibody, V domains shown)
VH: B1 VH with H26G, D59H
VL: B1 VL
notes: IgG; gemtuzumab VH variant #20 (D59H)
B10: MYT0487 (antibody, V domains shown)
VH: B1 VH with H26G, D31H
VL: B1 VL
notes: IgG; gemtuzumab VH variant #6 (D31H)
B11: MYT0500 (antibody, V domains shown)
VH: B1 VH with H26G, T58H
VL: B1 VL
notes: IgG; gemtuzumab VH variant #19 (T58H)
B12: MYT0508 (antibody, V domains shown)
VH: B1 VH with H26G, N66H
VL: B1 VL
notes: IgG; gemtuzumab VH variant #27 (N66H)
B13: MYT0497 (antibody, V domains shown)
VH: B1 VH with H26G, N55H
VL: B1 VL
notes: IgG; gemtuzumab VH variant #16 (N55H)
B14: MYT0499 (antibody, V domains shown)
VH: B1 VH with H26G, G57H
VL: B1 VL
notes: IgG; gemtuzumab VH variant #18 (G57H)
B15: MYT0494 (antibody, V domains shown)
VH: B1 VH with H26G, Y52H
VL: B1 VL
notes: IgG; gemtuzumab VH variant #13 (Y52H)
B16: MYT0493 (antibody, V domains shown)
VH: B1 VH with H26G, I51H
VL: B1 VL
notes: IgG; gemtuzumab VH variant #12 (I51H)
B17: MYT0506 (antibody, V domains shown)
VH: B1 VH with H26G, F64H
VL: B1 VL
notes: IgG; gemtuzumab VH variant #25 (F64H)
B18: MYT0503 (antibody, V domains shown)
VH: B1 VH with H26G, N61H
VL: B1 VL
notes: IgG; gemtuzumab VH variant #22 (N61H)
B19: MYT0514 (antibody, V domains shown)
VH: B1 VH with H26G, W102H
VL: B1 VL
notes: IgG; gemtuzumab VH variant #33 (W102H)
B20: MYT0498 (antibody, V domains shown)
VH: B1 VH with H26G, G56H
VL: B1 VL
notes: IgG; gemtuzumab VH variant #17 (G56H)
B21: MYT0492 (antibody, V domains shown)
VH: B1 VH with H26G, Y50H
VL: B1 VL
notes: IgG; gemtuzumab VH variant #11 (Y50H)
B22: MYT0496 (antibody, V domains shown)
VH: B1 VH with H26G, Y54H
VL: B1 VL
notes: IgG; gemtuzumab VH variant #15 (Y54H)
B23: MYT0485 (antibody, V domains shown)
VH: B1 VH with H26G, I29H
VL: B1 VL
notes: IgG; gemtuzumab VH variant #4 (I29H)
B24: MYT0515 (antibody, V domains shown)
VH: B1 VH with H26G, L103H
VL: B1 VL
notes: IgG; gemtuzumab VH variant #34 (L103H)
B25: MYT0489 (antibody, V domains shown)
VH: B1 VH with H26G, N33H
VL: B1 VL
notes: IgG; gemtuzumab VH variant #8 (N33H)
B26: MYT0507 (antibody, V domains shown)
VH: B1 VH with H26G, K65H
VL: B1 VL
notes: IgG; gemtuzumab VH variant #26 (K65H)
B27: MYT0516 (antibody, V domains shown)
VH: B1 VH with H26G, A104H
VL: B1 VL
notes: IgG; gemtuzumab VH variant #35 (A104H)
B28: MYT0512 (antibody, V domains shown)
VH: B1 VH with H26G, N100H
VL: B1 VL
notes: IgG; gemtuzumab VH variant #31 (N100H)
B29: MYT0517 (antibody, V domains shown)
VH: B1 VH with H26G, Y105H
VL: B1 VL
notes: IgG; gemtuzumab VH variant #36 (Y105H)
B30: MYT0504 (antibody, V domains shown)
VH: B1 VH with H26G, Q62H
VL: B1 VL
notes: IgG; gemtuzumab VH variant #23 (Q62H)
B31: MYT0505 (antibody, V domains shown)
VH: B1 VH with H26G, K63H
VL: B1 VL
notes: IgG; gemtuzumab VH variant #24 (K63H)
B32: MYT2675 (antibody, V domains shown)
VH: QVQLVQSGAEVKKPGASVKVSCKASGYTFTNYDINWVRQAPGQGLEWIGWIYPGDGSTKYNEKFKAKATLTADTSTSTAYMELRSLRSDDTAVYYCASGYEDAMDYWGQGTTVTVSS
VL: DIQMTQSPSSLSASVGDRVTINCKASQDINSYLSWFQQKPGKAPKTLIYRANRLVDGVPSRFSGSGSGQDYTLTISSLQPEDFATYYCLQYDHFPLTFGGGTKVEIK
notes: IgG; vadastuximab VL variant #23 (E93H)
B33: MYT2679 (antibody, V domains shown)
VH: B32 VH
VL: B32 VL with H93E, T97H
notes: IgG; vadastuximab VL variant #27 (T97H)
B34: MYT2677 (antibody, V domains shown)
VH: B32 VH
VL: B32 VL with H93E, P95H
notes: IgG; vadastuximab VL variant #25 (P95H)
B35: MYT2676 (antibody, V domains shown)
VH: B32 VH
VL: B32 VL with H93E, F94H
notes: IgG; vadastuximab VL variant #24 (F94H)

Biological target: T1, CD33 (Sino Biological, Cat #12238-H08H) (UniProt P20138 18-259)
Test: BLI, IgG captured on anti-human Fc sensor, 50 nM CD33, pH 7.4 vs pH 5.0
Text: Multiple CD33-binding monoclonal antibodies have been described in the literature and can be used as a template for engineering pH-dependent binding (Hamann P R et al (2002) “Gemtuzumab ozogamicin, a potent and selective anti-CD33 antibody-calicheamicin conjugate for treatment of acute myeloid leukemia.” Bioconjug Chem 13(1):47-58). Gemtuzumab (Heavy chain SEQ ID NO: 1, Light chain SEQ ID NO: 2) was selected as a CD33-binding monoclonal antibody for pH engineering via histidine scanning. Briefly, CDRs in the heavy chain were identified using the methods described by Kabat et al (Kabat et al. (1992) Sequences of Proteins of Immunological Interest, DIANE publishing) and IMGT (Lefranc M P (1999) “The IMGT unique numbering for Immunoglobulins, T cell receptors and Ig-like domains” The Immunologist 7, 132-136), and for each CDR, residues falling under either or both Kabat and IMGT CDR definitions were called as CDR residues. To generate pH-dependent sequence variants, individual amino acid residues within the heavy chain CDRs were systematically substituted with a histidine, one at a time (MYT0482-MYT0517). In cases where the starting CDR residue was a histidine, it was mutated to an alanine. Antibody variants with only one histidine or alanine mutation in a heavy chain CDR were generated by co-transfection of Expi293 cells with a) one heavy chain sequence variant, and b) the corresponding starting ABPC light chain using methods known to the art. After allowing for four days of protein expression, cell culture supernatants were collected, quantified by SDS-PAGE analysis, (FIG. 1), and the pH dependence of the variant was evaluated using biolayer interferometry (BLI) on an Octet RED 384 instrument. Briefly, cell culture supernatants were normalized to an antibody expression level of 25 μg/mL, and captured on an anti-human Fc sensor (Forte Bio). A baseline was established using 1×PBST (50 mM Potassium Phosphate Buffer+150 mM NaCl+0.05% Tween 20) pH 7.4, and the sensor was associated with 50 nM of CD33 (Sino Biological, Cat #12238) in 1×PBST pH 7.4 for 120 sec to generate an association curve. In the dissociation phase, the antibody-antigen complex on the sensor was exposed to 1×PBST pH 7.4 for 300-600 sec. Baseline, association, and dissociation were repeated using 1×MES (100 mM MES Buffer+150 mM NaCl+0.05% Tween 20) pH 5.0 throughout in a separate condition.

T1 sequence (P20138 18-259 limits assumed): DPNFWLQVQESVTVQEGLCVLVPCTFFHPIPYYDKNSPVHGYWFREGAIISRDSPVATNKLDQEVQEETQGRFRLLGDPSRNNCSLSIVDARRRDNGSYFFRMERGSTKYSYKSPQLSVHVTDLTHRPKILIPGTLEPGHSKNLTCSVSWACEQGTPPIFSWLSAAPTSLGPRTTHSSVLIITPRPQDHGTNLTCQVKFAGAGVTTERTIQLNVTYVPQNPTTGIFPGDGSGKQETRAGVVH

Row | binding result | Binder
1 | binds | B1
2 | binds | B2
3 | binds | B3
4 | binds | B4
5 | binds | B5
6 | binds | B6
7 | binds | B7
8 | binds | B8
9 | binds | B9
10 | binds | B10
11 | binds | B11
12 | binds | B12
13 | binds | B13
14 | binds | B14
15 | binds | B15
16 | binds | B16

Row | binding result | Binder
17 | binds | B17
18 | binds | B18
19 | binds | B19
20 | binds | B20
21 | binds | B21
22 | binds | B22
23 | binds | B23
24 | binds | B24
25 | binds | B25
26 | binds | B26
27 | binds | B27
28 | binds | B28
29 | binds | B29
30 | binds | B30
31 | binds | B31

Biological target: T1, CD33 (Sino Biological, Cat #12238-H08H)
Test: BLI, IgG captured on anti-human Fc sensor, 50 nM CD33, pH 7.4 vs pH 5.4

Row | binding result | Binder
32 | binds | B32
33 | binds | B33
34 | binds | B34
35 | binds | B35
